Laboratory results as given in patent US20130231465A1 (HEMHOLTZ ZENTRUM MUNCHEN DEUTCHES FORSCHUNGSZENTRUM FUR …, published 2013).

Target: CA-XII as used in the enzyme inhibition assay (Homo sapiens (Human), UniProt O43570 25-301, limits assumed)
Assay: cell-based or functional assay

Chain of CA-XII as used in the enzyme inhibition assay (O43570 25-301 limits assumed): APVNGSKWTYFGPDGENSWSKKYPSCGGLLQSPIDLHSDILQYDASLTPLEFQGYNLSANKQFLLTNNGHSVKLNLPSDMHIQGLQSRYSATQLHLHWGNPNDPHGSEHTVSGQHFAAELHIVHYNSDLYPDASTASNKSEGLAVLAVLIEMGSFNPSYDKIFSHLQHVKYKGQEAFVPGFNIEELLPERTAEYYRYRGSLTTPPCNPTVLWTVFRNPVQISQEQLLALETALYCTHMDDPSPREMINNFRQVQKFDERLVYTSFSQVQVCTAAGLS

B1: EXO 6A10 (antibody, V domains shown)
VH: EVKLEESGPGLVQPSETLSLTCTVSGFSLTTYSVSWVRQPSGKGPEWMGRMWYDGDTVYNSALKSRLSISRDTSKNQVFLKMNSLETDETGTYYCTRDFGYFDGSSPFDYWGQGVMVTVSS
VL: DIVMTQTPATLSVTPGESVSLSCRASQGISTSIHWYQQKSNESPRLLIKFASQSISGIPSRFSGSGSGTDFTLSINRVESEDFSVYFCQQTYSLPYTFGAGTKLELK
B1 was tested, and the “inhibition of CA-XII (enzyme activity), IC50” value was 6.14 nM.
